The values that follow come from patent US7247438.

Test [1] concerns the target VSV8/Kb complex (vesicular stomatitis virus; mouse) (UniProt P01887). Put plainly: cell-based or functional assay.
Test [2] deals with activated thymic caspase (~17 kD subunit) of VSV8-triggered N15 TCRtg RAG-2-/- H-2b mouse thymocytes (mouse). Put plainly: cell-based or functional assay.
The target is the same in test [3]. Put plainly: preincubation with zVADfmk, competitor biotin-DEVDamk, thymic lysate, streptavidin-HRP blot.
For another test, the target named is mouse CD3ε (mouse) (UniProt P22646). Briefly: cell-based or functional assay.

Sequence of VSV8/Kb complex (vesicular stomatitis virus; mouse) (P01901 22-369 limits assumed, chain 2 of 2): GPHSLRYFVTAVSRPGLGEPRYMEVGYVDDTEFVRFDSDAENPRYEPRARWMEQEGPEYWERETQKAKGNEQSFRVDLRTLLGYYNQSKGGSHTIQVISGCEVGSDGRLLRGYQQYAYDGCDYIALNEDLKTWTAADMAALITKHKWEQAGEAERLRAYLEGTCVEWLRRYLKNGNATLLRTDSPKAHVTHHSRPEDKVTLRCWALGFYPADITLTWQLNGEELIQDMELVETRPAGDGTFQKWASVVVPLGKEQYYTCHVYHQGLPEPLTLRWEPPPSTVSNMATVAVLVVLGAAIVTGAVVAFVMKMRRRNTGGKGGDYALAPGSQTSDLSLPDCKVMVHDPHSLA
Sequence of VSV8/Kb complex (vesicular stomatitis virus; mouse) (P01887 21-119 limits assumed, chain 3 of 2): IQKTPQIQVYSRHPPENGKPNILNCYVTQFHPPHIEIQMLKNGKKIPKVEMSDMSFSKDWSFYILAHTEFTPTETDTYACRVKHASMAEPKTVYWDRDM

Take N15 TCR: in test [1], the TdT positive cells per mm2 (TUNEL), FTOC N15tg #1, VSV8 (TdT positive cells / mm2) was found to be 429; the TdT positive cells per mm2 (TUNEL), FTOC N15tg #2, VSV8 (TdT positive cells / mm2) was determined as 456; the TdT positive cells per mm2 (TUNEL), FTOC N15tg #3, VSV8 (TdT positive cells / mm2) was 441.

As to “N-(Z-Valinylalanyl)aspartic acid methyl ketone, b-methyl ester (peptide)”, in test [2], the TdT positive cells per mm2 (TUNEL), FTOC N15tg #1, zVADmk + VSV8 (TdT positive cells / mm2) was 360; the TdT positive cells per mm2 (TUNEL), FTOC N15tg #2, zVADmk + VSV8 (TdT positive cells / mm2) was 525; the TdT positive cells per mm2 (TUNEL), FTOC N15tg #3, zVADmk + VSV8 (TdT positive cells / mm2) is 461.

Take “N-benzyloxycarbonyl-Val-Ala-Asp(OMe)-fluoromethylketone (peptide)”: the molar excess over biotin-DEVDamk at which the ~17 kD band is no longer detectable in test [3] lay in the range of 100 to 1000 fold. Moreover, in test [2], the TdT positive cells per mm2 (TUNEL), FTOC N15tg #1, zVADfmk + VSV8 (TdT positive cells / mm2) turned out to be 6; the TdT positive cells per mm2 (TUNEL), FTOC N15tg #2, zVADfmk + VSV8 (TdT positive cells / mm2) turned out to be 1; the TdT positive cells per mm2 (TUNEL), FTOC N15tg #3, zVADfmk + VSV8 (TdT positive cells / mm2) amounted to 2.

In the test with mouse CD3ε (mouse), “anti-CD3ε specific hamster anti-mouse mAb 145-2C11 (antibody)” showed a percent DP thymocytes in C57BL/6 FTOC after 18 hours with 200 mg/ml 2C11 mAb (FACS) of 37%.
